Patent US20230203202A1 (DRAGONFLY THERAPEUTICS, published 2023)

What was measured:
[1] = molecular target: T1, human 5T4 on the cell surface (human, UniProt Q13641 32-420); experiment: flow cytometry on H292 cells (12,000 5T4 per cell)
T1 construct: whole, on cells; also called h5T4; TPBG
T1 sequence (looked up): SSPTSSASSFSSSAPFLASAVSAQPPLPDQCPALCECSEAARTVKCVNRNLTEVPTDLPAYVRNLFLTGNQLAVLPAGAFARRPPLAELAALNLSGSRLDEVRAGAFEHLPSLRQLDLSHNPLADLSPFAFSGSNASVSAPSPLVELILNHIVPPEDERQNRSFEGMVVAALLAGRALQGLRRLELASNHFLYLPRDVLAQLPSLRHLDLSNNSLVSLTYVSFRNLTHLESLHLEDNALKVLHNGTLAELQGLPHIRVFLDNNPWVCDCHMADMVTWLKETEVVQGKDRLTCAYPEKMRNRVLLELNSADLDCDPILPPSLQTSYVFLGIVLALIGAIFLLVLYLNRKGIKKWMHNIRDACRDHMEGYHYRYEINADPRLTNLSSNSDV

[2] = molecular target: T1, human 5T4 on the cell surface; experiment: cell-based or functional assay
[3] = molecular target: T1, human 5T4 on the cell surface; experiment: flow cytometry on HT29 cells (5,000 5T4 per cell)
[4] = molecular target: T1, human 5T4 on the cell surface; experiment: flow cytometry on primary lung cancer-associated fibroblasts (Donor #377913A1), fold over background

B1: AB1310/AB1783-TriNKET® (bispecific antibody, human IgG1, kappa)
chain: DIQLTQSPSSLSASVGDRVTITCRASQSVTTSNYNYMHWFQQKPGKAPKLLIKFASNLESGVPSRFSGSGSGTDFTLTISSLQPEDFATYYCQHSWEIPWTFGCGTKVEIKGGGGSGGGGSGGGGSGGGGSEVQLVESGGGLVKPGGSLRLSCAASRFTFSDFGMHWVRQAPGKCLEWVSYISSGSSTIYYADSVKGRFTISRDNAKNSLYLQMNSLRAEDTAVYYCASSQSYYRGTLDYWGQGTTVTVSSASDKTHTCPPCPAPELLGGPSVFLFPPKPKDTLMISRTPEVTCVVVDVSHEDPEVKFNWYVDGVEVHNAKTKPREEQYNSTYRVVSVLTVLHQDWLNGKEYKCKVSNKALPAPIEKTISKAKGQPREPRVYTLPPCRDELTKNQVSLTCLVKGFYPSDIAVEWESNGQPENNYKTTPPVLVSDGSFTLYSKLTVDKSRWQQGNVFSCSVMHEALHNHYTQKSLSLSPG
heavy: EVQLVESGGGLVKPGGSLRLSCAASGFTFSSYSMNWVRQAPGKGLEWVSSISSSSSYIYYADSVKGRFTISRDNAKNSLYLQMNSLRAEDTAVYYCARGAPIGAAAGWFDPWGQGTLVTVSSASTKGPSVFPLAPSSKSTSGGTAALGCLVKDYFPEPVTVSWNSGALTSGVHTFPAVLQSSGLYSLSSVVTVPSSSLGTQTYICNVNHKPSNTKVDKKVEPKSCDKTHTCPPCPAPELLGGPSVFLFPPKPKDTLMISRTPEVTCVVVDVSHEDPEVKFNWYVDGVEVHNAKTKPREEQYNSTYRVVSVLTVLHQDWLNGKEYKCKVSNKALPAPIEKTISKAKGQPREPQVCTLPPSRDELTENQVSLTCLVKGFYPSDIAVEWESNGQPENNYKTTPPVLDSDGSFFLYSWLTVDKSRWQQGNVFSCSVMHEALHNHYTQKSLSLSPG
light: DIQMTQSPSSVSASVGDRVTITCRASQGISSWLAWYQQKPGKAPKLLIYAASSLQSGVPSRFSGSGSGTDFTLTISSLQPEDFATYYCQQGVSFPRTFGGGTKVEIKRTVAAPSVFIFPPSDEQLKSGTASVVCLLNNFYPREAKVQWKVDNALQSGNSQESVTEQDSKDSTYSLSSTLTLSKADYEKHKVYACEVTHQGLSSPVTKSFNRGEC
notes: also called AB1310-TriNKET®; AB1783 10F10 F3′ LH H(T62S) CHO opt
- EC50 [1]: 1.5 nM
- cynomolgus monkey NK cell activation in co-culture with H292 cells, EC50 [2]: 0.06 nM
- cynomolgus monkey NK cell activation in co-culture with KYSE-30 cells, EC50 [2]: 0.06 nM
- human NK cell activation in co-culture with H292 cells, EC50 [2]: 0.35 nM
- human NK cell activation in co-culture with KYSE-30 cells, EC50 [2]: 0.13 nM
- EC50 [3]: 4.1 nM
- EC50 (read off the curve) [4]: ~4 nM
